These results are taken from publication PMC4934914, “Crystal Structure of Bacillus subtilis Cysteine Desulfurase SufS and Its Dynamic Interaction with Frataxin and Scaffold Protein SufU” (PLoS ONE, 2016).

By Kd is commonly meant the concentration at which binding is half-saturated. The low end stands for higher affinity, the high end for lower affinity. The stoichiometry N is the number of molecules, sites or subunits per partner or assembly.

The chains are these.
B1: Bacillus subtilis scaffold protein SufU (natural protein)
chain: MSFNANLDTLYRQVIMDHYKNPRNKGVLNDSIVVDMNNPTCGDRIRLTMKLDGDIVEDAKFEGEGCSISMASASMMTQAIKGKDIETALSMSKIFSDMMQGKEYDDSIDLGDIEALQGVSKFPARIKCATLSWKALEKGVAKEEGGN
notes: Fe-S cluster scaffold protein SufU of Bacillus subtilis; also called BsSufU
B4: Bacillus subtilis cysteine desulfurase SufS (enzyme)
chain: MNITDIREQFPILHQQVNGHDLVYLDSAATSQKPRAVIETLDKYYNQYNSNVHRGVHTLGTRATDGYEGAREKVRKFINAKSMAEIIFTKGTTTSLNMVALSYARANLKPGDEVVITYMEHHANIIPWQQAVKATGATLKYIPLQEDGTISLEDVRETVTSNTKIVAVSHVSNVLGTVNPIKEMAKIAHDNGAVIVVDGAQSTPHMKIDVQDLDCDFFALSSHKMCGPTGVGVLYGKKALLENMEPAEFGGEMIDFVGLYESTWKELPWKFEAGTPIIAGAIGLGAAIDFLEEIGLDEISRHEHKLAAYALERFRQLDGVTVYGPEERAGLVTFNLDDVHPHDVATVLDAEGIAVRAGHHCAQPLMKWLDVTATARASFYLYNTEEEIDKLVEALQKTKEYFTNVF
modifications: pyridoxal-5'-phosphate bound to Lys224 as an aldimine; Cys361-persulfide (in the crystal)
notes: cysteine desulfurase SufS of Bacillus subtilis; The structure 'could be built to completeness'; also called BsSufS

The target in data set [1] is B4. Kind of data set: HDX-MS; 60 μM of each component in 25 mM Tris-Cl pH 7.5, 100 mM NaCl; exchange in D2O buffer at 25°C for 15, 30, 60 or 600 s; online pepsin digestion. The settings on record: both partners purified.
For the next data set, the target named is T1, BsSufS/BsSufU complex (Bacillus subtilis, UniProt O32164 1-406; O32163 1-147).
T1 construct: cysteine desulfurase SufS of Bacillus subtilis, as the chain of m1; scaffold protein SufU of Bacillus subtilis, as the chain of m2; SufS is described as a homodimer; also called BsSufU/BsSufS; SufS/SufU complex; copies: 2 +
Description: MST; labelled BsFra (0.25 μM) mixed 1:1 with a dilution series of the partner (560 μM to 0.030 μM); 25 mM Tris-Cl, 100 mM NaCl, 10 mM 2-mercaptoethanol, pH 7.5; 25°C; Hill model; average of three measurements. The settings on record: both partners purified.

Data set [2] deals with B4. The description is as above. The settings on record: both partners purified.
The target in data set [3] is B1. The description is as above. The settings on record: both partners purified.
Data set [4] concerns the target B1. Description: HDX-MS; 60 μM of each component in 25 mM Tris-Cl pH 7.5, 100 mM NaCl; exchange in D2O buffer at 25°C for 15, 30, 60 or 600 s; online pepsin digestion. As to conditions: both partners purified.
Data set [5] concerns the molecule itself. Kind of data set: crystal structure; BsSufS crystallised at 20 mg/ml in 0.1 M HEPES pH 7.5, 50% (v/v) PEG 400, 20°C; one molecule in the asymmetric unit, homodimer across the crystallographic symmetry axis; 1.7 Å.

Turning to B1, in data set [1], the binding result is listed as “binds”.

B2: fluorophore-labelled BsFra (natural protein, Bacillus subtilis)
chain: MDVFSEYLAGIADPFHRERTEEVLTWIKNKYPNLHTEIKWNQPMFTDHGTFIIGFSVSKKHLAVAPEKVTIAHVEDDIVKAGYDYTEQLIRIPWNGPVDYTLLEKMIEFNILDKADCSTFWRK
modifications: labelled with the Monolith NT.115 Protein Labeling Kit RED MALEIMID (cysteine-reactive)
notes: frataxin homolog Fra (formerly YdhG) of Bacillus subtilis, as the chain of m3; Same protein as m3, with a red fluorophore on cysteine for MST; also called labeled BsFra; fluorophore-tagged frataxin
With B2, the Kd in the data set with BsSufS/BsSufU complex amounted to 32.5 ± 3.6 µM; in data set [2], 50.6 ± 17.4 µM; in data set [3], 57.4 ± 13.8 µM.

B3: Bacillus subtilis frataxin homolog Fra (natural protein)
chain: MDVFSEYLAGIADPFHRERTEEVLTWIKNKYPNLHTEIKWNQPMFTDHGTFIIGFSVSKKHLAVAPEKVTIAHVEDDIVKAGYDYTEQLIRIPWNGPVDYTLLEKMIEFNILDKADCSTFWRK
notes: frataxin homolog Fra (formerly YdhG) of Bacillus subtilis; Unlabelled form, used in H/DX and activity assays; also called BsFra; YdhG (former name)
On to B3, for which the binding result in data set [1] and in data set [4] was “binds” throughout.
Take B4: the “stoichiometry N” value in data set [5] was 2.
